± gives the half width of the 95% confidence interval.
How the values were obtained:
[1] = folding stability dG unfold from chymotrypsin proteolysis; higher = more stable
Procedure, shortened: (§1)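 Mini-proteins designed to be under 80 residues and free of cysteine were carried in a PA-tagged cDNA display construct and digested with trypsin and with chymotrypsin. Each protease was applied at 11 threefold-diluted concentrations, alongside a no-protease condition, before sequencing. K50 came from Bayesian fitting of the sequencing counts, and unfolding free energy was obtained by comparing it with a sequence-predicted unfolded-state K50 and a shared folded-state K50, for each protease separately or for both together. Designs were retained only if their AlphaFold2 dimer inter-PAE exceeded 15.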

[2] = folding stability dG unfold (combined trypsin and chymotrypsin); higher = more stable
Procedure, shortened: as §1

[3] = folding stability dG unfold from trypsin proteolysis; higher = more stable
Procedure, shortened: as §1

| Sequence | folding stability dG unfold [1] [kcal/mol] | folding stability dG unfold [2] [kcal/mol] | folding stability dG unfold [3] [kcal/mol] |
| --- | --- | --- | --- |
| SMTYSYGVDVSEDPNSDKTTATITTTSSDGSSSLSPEEVAAELAAEAKAAGYTVDVELRPGSVTITVTAPSA [r9_510_JUSTAS] | 0.108 ± 0.086 | 0.354 ± 0.059 | 0.464 ± 0.018 |
| SGKVKVKVEIPIPFRPPDGKWMMMNIWVEAEVPVTPEDLNNGKPRIRPEALDEAKDKVREWMRDIFGEPISA [r9_629_TrROS] | 1.74 ± 0.11 | 1.45 ± 0.13 | 1.03 ± 0.052 |
| SAGGSAGGSAIKKTPNGKYLLKVTFTETYKDKKTGKTYKKTYTKTYVFDKKTNKWKSAEELSAGGSAGGSAG [r3_394_TrROS_Hall] | 3.12 ± 0.12 | 2.94 ± 0.33 | 2.41 ± 0.17 |
| SAGGSAGGSSMLTITKTYTLPPEEIKKIEGKPGVLKVEPFVTPEGKLVVKVEIRLEIGPEKLLLSAGGSAGG [r6_155_JUSTAS] | 1.11 ± 0.22 | 0.914 ± 0.11 | 0.738 ± 0.11 |
| SAGGSAGGSDWRPIKIWYPLDDLEQIKEKIREDGITVEINVQRDPNGKLYAPVTIWVPKGAKPSAGGSAGGS [r12_653_TrROS] | 1.57 ± 0.032 | 1.32 ± 0.15 | 0.998 ± 0.039 |
| SSPANITTTTTSSPLNLETFDPKTGKKKRINYTLTTETVTFPGGEVVTTTVLKDASTGKVTTLSTTVTPTSA [r9_402_JUSTAS] | 1.22 ± 0.14 | 1.08 ± 0.12 | 0.773 ± 0.081 |
| SAGGETKTFTIDEIRAKLKEALDNGIDEVRITVFRDGKEEEITIPASKLDEIIASLPPDATVRIERVSAGGS [r16_636_TrROS_Hall] | 1.86 ± 0.11 | 1.97 ± 0.13 | 2.02 ± 0.042 |
| SAGGSAGGSANWKEIDGTLPWGLRVKVWVSPGNGQLMIEIKPVPPPPPPKISPEDADKANADSAGGSAGGSA [r18_236_TrROS] | 4.06 ± 0.13 | 3.39 ± 0.3 | 2.31 ± 0.072 |
| SAGGSAPPPGSTQVIVVEKRDAPPEEAAQEIADEIKEKYPNTSVEVQEEEVPPGEPVVRVTVYIPPSAGGSA [r15_916_JUSTAS] | 0.945 ± 0.15 | 0.559 ± 0.48 | 0.845 ± 0.14 |
| SAGGMEEIEPVTITITVVDEETGEKVEIKITVPKEEITRIEIKPDGTIRIYFKENNEVIEIKLEDIKSAGGS [r16_410_TrROS_Hall] | 4.22 ± 0.19 | 4.16 ± 0.32 | 2.99 ± 0.24 |
| SAGGSAGGSAGGMVELDPENGTLTVLVEVDGELYKVTIKFNPETNEIVSIEVEKLPELEESAGGSAGGSAGG [r7_343_TrROS_Hall] | 3.85 ± 0.31 | 3.66 ± 0.42 | 3.03 ± 0.41 |
| SAGGSAGGSAGGKMRLYRFNLKTNKIEEVEAEPGEVIKITFPGKEIVLVVKDGKIELIPSAGGSAGGSAGGS [r10_817_TrROS_Hall] | 1.2 ± 0.22 | 0.884 ± 0.21 | 0.464 ± 0.13 |
| SAGGSAGGSASITYENGYATITLKVPEGTVRIVDLATNEVIEIKPGDTVTIRVKIPPPPPESAGGSAGGSAG [r3_185_TrROS_Hall] | 1.55 ± 0.059 | 1.73 ± 0.18 | 2.31 ± 0.095 |
| SAGGSAGGSAGGKTYRVKVRIYNPETGEVLEIEVEVETDTEEEAKRAAENLARELLKKSSAGGSAGGSAGGS [r10_863_TrROS_Hall] | 3.7 ± 0.058 | 3.47 ± 0.12 | 2.69 ± 0.045 |
| SAGGSAGGGMSMEELKTVDYPLVVTVPLPDGSTVTVSAKVPAEDLDKAIPEVEERAKALAEEGASAGGSAGG [r6_903_JUSTAS] | 1.26 ± 0.038 | 0.843 ± 0.059 | -0.194 ± 0.053 |
| SAGGSAGGSAGMRIVLRLPRDVPLEALRRELEALGGEVRIETEDDPDGRLLFVVELRPKESAGGSAGGSAGG [r11_1050_TrMRF] | 1.81 ± 0.14 | 1.8 ± 0.14 | 1.63 ± 0.061 |
| SAGGSAGGSAGGGTVTLEIELKVKPGEKIKDLATGEEFEVKEGETVRIRITLPLPPAPEESAGGSAGGSAGG [r7_234_TrROS_Hall] | 1.11 ± 0.078 | 1.2 ± 0.17 | 0.963 ± 0.068 |

— the supplement of paper PMC12764529
